Source: patent US20100233154A1 (AstraZeneca / MedImmune, published 2010)
Numbering of substitutions follows the chain as printed.

T1: recombinant human heparanase (active, 8 and 50 kDa sub-units, from baculovirus-infected Hi5 cells) (human, UniProt Q9Y251 36-109; Q9Y251 158-543)
T1 construct: domain: 8 kDa sub-unit;domain: 50 kDa sub-unit; also called soluble recombinant human heparanase; recombinant Hpa1
T1 sequence (looked up) 1: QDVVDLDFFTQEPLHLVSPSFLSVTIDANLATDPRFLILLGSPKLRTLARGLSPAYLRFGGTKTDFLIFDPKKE
T1 sequence (looked up) 2: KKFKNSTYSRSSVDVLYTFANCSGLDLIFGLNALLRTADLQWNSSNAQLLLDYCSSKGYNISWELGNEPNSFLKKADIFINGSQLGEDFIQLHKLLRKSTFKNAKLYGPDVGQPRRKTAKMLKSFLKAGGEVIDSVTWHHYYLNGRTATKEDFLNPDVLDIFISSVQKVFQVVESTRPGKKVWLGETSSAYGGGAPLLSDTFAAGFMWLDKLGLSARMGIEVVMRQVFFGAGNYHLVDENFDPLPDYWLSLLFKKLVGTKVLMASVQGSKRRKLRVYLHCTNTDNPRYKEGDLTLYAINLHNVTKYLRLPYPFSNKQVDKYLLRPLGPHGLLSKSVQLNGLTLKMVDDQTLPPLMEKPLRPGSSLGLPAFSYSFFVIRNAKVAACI

T2: human heparanase as used in the cross species capture ELISA (human, UniProt Q9Y251 36-543, limits assumed)
T2 construct: Captured on plates by a rabbit anti-heparanase antibody
T2 sequence (looked up): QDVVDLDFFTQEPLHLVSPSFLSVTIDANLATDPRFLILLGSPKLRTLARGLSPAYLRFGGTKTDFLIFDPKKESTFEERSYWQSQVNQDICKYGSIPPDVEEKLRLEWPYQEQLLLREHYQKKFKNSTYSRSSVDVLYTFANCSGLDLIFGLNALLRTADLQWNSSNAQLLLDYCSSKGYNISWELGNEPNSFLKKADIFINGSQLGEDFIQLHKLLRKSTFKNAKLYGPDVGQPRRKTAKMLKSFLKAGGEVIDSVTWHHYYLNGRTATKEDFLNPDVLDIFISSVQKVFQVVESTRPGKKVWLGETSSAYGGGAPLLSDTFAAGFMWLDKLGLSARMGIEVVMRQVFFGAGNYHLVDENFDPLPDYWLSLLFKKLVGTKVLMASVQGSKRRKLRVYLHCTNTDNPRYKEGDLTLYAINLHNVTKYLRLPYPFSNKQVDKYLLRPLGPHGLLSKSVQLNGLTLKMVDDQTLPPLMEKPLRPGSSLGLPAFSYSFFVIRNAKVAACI

T3: murine heparanase (murine, UniProt Q6YGZ1 28-535, limits assumed)
T3 construct: also called Mouse; recombinant murine heparanase
T3 sequence (looked up): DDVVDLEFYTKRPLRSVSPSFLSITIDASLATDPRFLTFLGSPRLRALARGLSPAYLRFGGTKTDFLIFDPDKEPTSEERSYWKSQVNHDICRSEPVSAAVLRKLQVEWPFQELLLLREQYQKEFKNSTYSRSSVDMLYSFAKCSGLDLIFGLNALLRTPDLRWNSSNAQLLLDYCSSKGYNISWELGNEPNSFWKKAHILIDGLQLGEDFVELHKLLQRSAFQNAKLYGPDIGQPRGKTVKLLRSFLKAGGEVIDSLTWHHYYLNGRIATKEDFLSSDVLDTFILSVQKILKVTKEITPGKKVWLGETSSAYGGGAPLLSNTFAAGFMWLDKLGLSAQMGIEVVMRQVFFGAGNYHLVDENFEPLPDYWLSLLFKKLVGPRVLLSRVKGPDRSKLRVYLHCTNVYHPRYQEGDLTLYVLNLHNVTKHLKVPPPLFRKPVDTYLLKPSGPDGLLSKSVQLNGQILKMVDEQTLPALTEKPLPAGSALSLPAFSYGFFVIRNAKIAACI

T4: cynomolgus heparanase (cynomolgus, UniProt A0A2K5UQU0 87-593)
T4 construct: also called recombinant cynomolgus heparanase
T4 sequence: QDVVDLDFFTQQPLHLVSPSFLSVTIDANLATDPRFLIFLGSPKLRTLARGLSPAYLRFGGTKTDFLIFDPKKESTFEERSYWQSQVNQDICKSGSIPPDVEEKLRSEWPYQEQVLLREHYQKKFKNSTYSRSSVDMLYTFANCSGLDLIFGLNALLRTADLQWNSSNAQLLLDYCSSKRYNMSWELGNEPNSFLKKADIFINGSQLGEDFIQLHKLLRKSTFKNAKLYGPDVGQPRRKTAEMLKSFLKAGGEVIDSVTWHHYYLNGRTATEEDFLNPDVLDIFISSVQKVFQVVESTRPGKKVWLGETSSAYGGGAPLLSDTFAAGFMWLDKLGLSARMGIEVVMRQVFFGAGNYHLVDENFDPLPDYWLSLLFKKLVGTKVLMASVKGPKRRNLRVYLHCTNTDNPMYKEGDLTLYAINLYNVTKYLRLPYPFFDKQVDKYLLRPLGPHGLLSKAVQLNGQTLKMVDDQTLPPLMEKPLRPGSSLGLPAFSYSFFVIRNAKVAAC

B1: monoclonal antibody 15A11.1 (antibody, V domains shown)
VH: QVQLVQSGAEVKKPGASVKVSCKVSGDTLTELSMHWVRQTPGKGLEWMGGFDPEDGETIYAQKFQGRVTMTGDTSTDTAYMELSSLRSEDTAVYYCATEGDYGDSEEYYYYYGMDVWGQGTTVTVSS
VL: DIQMTQSPSSLSASVGDRVTITCRASQGISNYLAWYQQKPGKVPKLLIYAASTLQSGVPSRFSGSGSGTDFTLTISSLQPEDVATYYCQKYNRAPFTFGPGTKVDIK
notes: Fully human (XenoMouse) antibody; also called ATCC PTA-9490
B2: monoclonal antibody 10E9.1 (antibody, V domains shown)
VH: QVQLVQSGAEVKKPGASVKVSCKVSGYSLTELSIHWVRQAPGKGLEWMGGFDPEDGEIIFAQKFQGRVTLTEDISLDTAYMEVSSLRSEDTAVYYCATEGHDSGDYVGYYYYGLDVWGQGTTVTVSS
VL: B1 VL with G28D, S30R, Y32F, V43L, T85S, K90S, Y91H, R93S, A94V, K107R
notes: Fully human (XenoMouse) antibody; also called mAb 10E9.1; ATCC PTA-9489
B3: monoclonal antibody 16G1.1 (antibody, V domains shown)
VH: QVQLVESGGGVVQPGRSLRLSCAASGFTFSSYGMHWVRQAPGKGLEWVAVIWYDGSNKYYADSVKGRFTISRDNSKNTLNLQMNSLRAEDTAVYYCGRDPGTYHYYYHGMDVWGQGTTVTVSS
VL: YIVMTQSPLSLPVTPGEPASISCRSSQSLLHSNGYNFLDWYLQKPGQSPQLLIYLGSNRASGVPDRFSGSGSGTDFTLKINRVEAEDVGVYYCMQALQTPITFGQGTRLEIK
notes: Fully human (XenoMouse) antibody
B4: monoclonal antibody 7B9.1 (antibody, V domains shown)
VH: QVQLVESGGGVVQPGRSLRLSCAASGFTFSSYGMHWVRQAPGKGLEWVAVIWYDGSNKYYADSVKGRFTISRDNSKNTLYLQMNSLRAEDTAVYYCAREGAPYSSSDAFDIWGQGTMVTVSS
VL: QSVLTQPPSVSGAPGQRVTISCTGSSSNIGANYDVHWYQQLPGTAPKLLIYGDNNRPSGVPDRFSGSKSGTSASLAITGLQAEDEADYYCQSYDSSLSGSVFGGGTKLTVL
notes: as for B3
B5: monoclonal antibody 14H12.3 (antibody, V domains shown)
VH: QVQLVESGGGVVQPGRSLRLSCAASGFTFSSYGMHWVRQAPGKGLEWVAVIWYDGSNKDYADSVKGRFTISRDNSKNTLYLQMNSLRAEDTAVYYCAREGSTSWTDYYGMDVWGQGTTVTVSS
VL: SYELTQPPSVSVSPGQTARITCSGDALPKRYAYWYQQKSGQALVLVIYEDSKRPSGIPERFSGSSSGTMATLTISGAQVEDEADYYCYSIDSSGNHGVFGGGTKLTVL
notes: as for B3
B6: monoclonal antibody 16E1.1 (antibody, V domains shown)
VH: QVQLQESGPGLVKPSQTLSLTCTVSGGSISSGGYYWSWIRQHPGKGLEWIGFIYYSGSTFYNPSLKSRITISVDTSKNQFSLKLSSVTAADTAVYYCARPYSSSWYGAFDIWGQGTMVTVSS
VL: SYELTQPPSVSVSPGRTASITCSEDKLGNKYAYWYQQKPGQSPVLVIYQDSERPSGIPERFSGSNSGNTATLTISGTQAMDEADYYCQAWDSSTVVFGGGTKLTVL
notes: as for B3
B7: monoclonal antibody 15A1.2 (antibody, V domains shown)
VH: QVQLVQSGAEVKKPGASVKVSCKVSGYTLTELSMHWVRQAPGKGLEWMGGFDPEDGETIFAQKFQGRVTMTEDTSTDTAYMELSSLRSEDTAVYYCATGLRFLEWFLWGWDVWGQGTTVTVSS
VL: DIQMTQSPSSVSASVGDRVTITCRASQGISNWLAWYQQTPGKAPQLLIYGASSLQSGVPSRFSGSGSGTDFTLTISSLQPEDFATYYCQQADSFPPTFGQGTKVEIK
notes: Fully human (XenoMouse) antibody; also called ATCC PTA-9491

Molecular target: T1, recombinant human heparanase (active, 8 …)
Assay: ELISA, hybridoma supernatant on directly coated recombinant human heparanase

Compared with B1, B2 is higher in “OD, binding to direct coated heparanase” value: 0.07 OD units for the first, 0.2 OD units for the second.

Compared with B3, B4 is higher in “OD, binding to direct coated heparanase” value: 3.63 OD units for the first, 3.78 OD units for the second.

Going from B5 to B6, the “OD, binding to direct coated heparanase” value falls from 3.69 OD units to 0.15 OD units.

With B7 the “OD, binding to direct coated heparanase” value was 0.08 OD units.

Molecular target: T2, human heparanase as used in the cross …
Assay: cross species capture ELISA, heparanase captured by rabbit anti-heparanase antibody, exhaustive supernatant 1:5, anti-human IgG Fc detection
Description: (§1) Initially, cross species binding to human, murine and cynomolgus heparanase was determined in an ELISA assay in which heparanase was captured onto plates using a rabbit anti-heparanase antibody (Raybiotech, Cat. IP-14-155). Exhaustive supernatants were added to the plates at a final dilution of 1:5 and bound antibody detected with a rabbit anti-human IgG Fc.

Compared with B1, B2 is higher in “OD, binding to heparanase (Human)” value: 0.21 OD units for the first, 0.63 OD units for the second.

Going from B3 to B4, the “OD, binding to heparanase (Human)” value falls from 1.84 OD units to 0.68 OD units.

Going from B5 to B6, the “OD, binding to heparanase (Human)” value rises from 0.61 OD units to 1.08 OD units.

With B7 the “OD, binding to heparanase (Human)” value was 0.19 OD units.

Molecular target: T3, murine heparanase
Assay: as above
Description: as §1

Going from B1 to B2, the “OD, binding to heparanase (Mouse)” value rises from 0.17 OD units to 0.49 OD units.

First: B3
Second: B4
The “OD, binding to heparanase (Mouse)” value of the first is higher: 0.61 OD units for the first, 0.58 OD units for the second.

First: B5
Second: B6
The “OD, binding to heparanase (Mouse)” value of the first is lower: 0.14 OD units for the first, 0.63 OD units for the second.

With B7 the “OD, binding to heparanase (Mouse)” value was 0.14 OD units.

Molecular target: T4, cynomolgus heparanase
Assay: as above
Description: as §1

Compared with B1, B2 is higher in “OD, binding to heparanase (Cyno)” value: 0.14 OD units for the first, 1.4 OD units for the second.

Compared with B3, B4 is lower in “OD, binding to heparanase (Cyno)” value: 1.64 OD units for the first, 1.06 OD units for the second.

First: B5
Second: B6
The “OD, binding to heparanase (Cyno)” value of the first is lower: 0.95 OD units for the first, 1.66 OD units for the second.

Molecular target: T1, recombinant human heparanase (active, 8 …)
Assay: medium resolution Biacore, antibody captured on goat anti-human antibody CM4 chip, recombinant Hpa1 at 1 nM and 10 nM, 25 C, 1:1 model with mass transport
Description: For medium resolution Biacore™ tests, cloned and purified antibodies were used. Each of three purified antibodies (10E9.1, 15A1.2, and 15A11.1) were captured onto a high-density goat anti-human antibody surface over a CM4 Biacore™ chip. Recombinant Hpa1 was diluted to the desired concentration (1 nM and 10 nM) in 10 mM HEPES, 150 mM NaCl, 0.005% tween-20, 0.1 mg per ml BSA pH7.4 (25° C.) immediately prior to injection. Data were fit globally to a 1:1 interaction model with a term for mass transport included. The resulting KD values are summarised below in Table 4.

B1 and B2 are within 1.5-fold of each other in Kd: 0.056 nM for the first, 0.0545 nM for the second.

Binder B7 has a Kd of 0.056 nM.

First: B1
Second: B2
The koff of the first is 2.8-fold higher: 0.000309 s⁻¹ for the first, 0.000112 s⁻¹ for the second.

With B7 the koff was 0.000105 s⁻¹.

Compared with B1, B2 is 1.7-fold lower in kon: 3.6e+06 M⁻¹ s⁻¹ for the first, 2.06e+06 M⁻¹ s⁻¹ for the second.

In the case of B7, the kon is reported as 1.88e+06 M⁻¹ s⁻¹.

Molecular target: T1, recombinant human heparanase (active, 8 …)
Assay: cell-based or functional assay

Going from B1 to B2, the “Inhibition of recombinant human heparanase %, Assay 1” value rises from 75% to 88%.

Compared with B3, B4 is higher in “Inhibition of recombinant human heparanase %, Assay 1” value: 44% for the first, 63% for the second.

Compared with B5, B6 is lower in “Inhibition of recombinant human heparanase %, Assay 1” value: 58% for the first, 40% for the second.

For B7, the “Inhibition of recombinant human heparanase %, Assay 1” value was 81%.

Going from B1 to B2, the “Inhibition of recombinant human heparanase %, Assay 2” value rises from 87% to 99%.

First: B3
Second: B4
The “Inhibition of recombinant human heparanase %, Assay 2” value of the first is lower: 53% for the first, 54% for the second.

Compared with B5, B6 is lower in “Inhibition of recombinant human heparanase %, Assay 2” value: 85% for the first, 51% for the second.

With B7 the “Inhibition of recombinant human heparanase %, Assay 2” value was 91%.
